The target of assay [1] is T1, Protein A (UniProt P38507 37-327).
T1 construct: Commercial chromatography resin; also called rProtein A Sepharose Fast Flow (GE Healthcare)
Briefly: Protein A column chromatography, stepwise pH elution; eluted fractions analysed by cation exchange chromatography (peak area %).

Assay [2] concerns the target T2, Protein A (UniProt P38507 37-327).
T2 construct: bought recombinant resin; also called rProtein A Sepharose Fast Flow
Briefly: Protein A affinity chromatography, elution at pH 3.6.

Assay [3] concerns the target T2, Protein A. The assay is described as follows: Protein A affinity chromatography, stepwise pH elution. An excerpt: Samples purified by batchwise elution were used as controls.
Assay [4] deals with T1, Protein A. Briefly: Protein A column chromatography, pH 3.6 elution; eluted fraction analysed by cation exchange chromatography (peak area %). As to the method: The quantity of CM to be loaded was adjusted in a way that the quantity of the loaded antibody is 20 mg/ml resine. Fractions eluted under each condition were collected and the components contained in each elution fraction were identified by cation exchange chromatography analysis. […] Samples purified by batchwise elution were used as controls.
The values represent the area of elution peak expressed in percentage.

In assay [5] the target is T2, Protein A. The assay is described as follows: Protein A affinity chromatography, elution at pH 3.6 and pH 2.7.
Assay [6] addresses T1, Protein A. Briefly: Protein A column chromatography, stepwise pH elution; eluted fractions analysed by cation exchange chromatography (peak area %). The source holds these as a separate data set.
The target of assay [7] is T3, FcgRIIIaV (human, UniProt P08637 17-208).
T3 construct: extracellular domain; also called FcγRIIIa V; 3aV; not shown: His tag attached to the C terminus
Briefly: SPR (Biacore), antibody captured on chip, FcgR extracellular domain as analyte. As to the method: Specifically, H240-Kn204 resulting from the introduction of L234Y/K290Y/Y296W into H240-Kn033, H240-Hl211 resulting from the introduction of S239D/A330M/K334V into H240-Hl033, H240-Kn205 resulting from the introduction of L234Y/Y296W/S298C into H240-Kn033, and H240-Hl212 resulting from the introduction of S239D/K334V into H240-Hl033 were produced according to the method of Reference Example 1. H240-Kn204/H240-Hl211/L73-k0 and H240-Kn205/H240-Hl212/L73-k0 were prepared according to the method of Reference Example 1, by combining H240-Kn204 as one of the H chains and L73-k0 as the L chains with H240-Hl211 as the other H chain, and by combining H240-Kn205 as one of the H chains and L73-k0 as the L chains with H240-Hl212 as the other H chain, and then expressing them. The binding of the prepared variants to FcgRIa, FcgRIIaR, FcgRIIaH, FcgRIIb, FcgRIIIaF, and FcgRIIIaV was measured according to the method of Reference Example 8.
Analysis of interaction between objective antibody and the FcγR was carried out using Biacore T100 (GE Healthcare), Biacore T200, Biacore A100, and Biacore 4000. HBS-EP+ (GE Healthcare) was used as the running buffer, and the measurement temperature was set to 25° C. Chips produced by immobilizing the antigen peptide by the amine coupling method to a Series S sensor Chip CM5 (GE Healthcare), chips produced by allowing preliminarily biotinylated antigen peptides to interact with and immobilize onto a Series S Sensor Chip SA (certified) (GE Healthcare), chips produced by immobilizing Protein L (ACTIGEN, BioVision) to Series S Sencor Chip CM5 (GE Healthcare), or chips produced by immobilizing Protein A/G (Thermo Scientific) to Series S Sencor Chip CM5 (GE Healthcare) were used. Antibodies of interest were captured onto these chips, and allowed to interact to each FcγR diluted with running buffer. To regenerate and repeatedly use the chip, the antibodies captured onto the chip were washed off by reacting 10 mM glycine-HCl, pH 1.5.

Assay [8] deals with T4, FcgRIIaH (human, UniProt P12318 34-217).
T4 construct: extracellular domain; also called FcγRIIa H; FcgRIIa type H; not shown: His tag attached to the C terminus
T4 sequence (looked up): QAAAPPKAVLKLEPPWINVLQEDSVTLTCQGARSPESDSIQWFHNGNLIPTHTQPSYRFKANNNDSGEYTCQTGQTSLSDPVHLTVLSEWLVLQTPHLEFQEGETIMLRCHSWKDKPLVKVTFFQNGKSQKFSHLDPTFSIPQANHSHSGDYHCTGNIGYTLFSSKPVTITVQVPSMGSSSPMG
Briefly: SPR (Biacore); KD of H240-Kn033/H240-Hl033/L73-k0 divided by KD of this variant.

For assay [9], the target named is T5, FcgRIIaR (human, UniProt P12318 34-217).
T5 construct: extracellular domain; also called FcγRIIa R; FcgRIIa type R; not shown: His tag attached to the C terminus
T5 sequence (looked up): T4 sequence (looked up) with H134R
The assay is described as above.

Assay [10] concerns the target T6, FcgRIIb (human, UniProt P31994 43-217).
T6 construct: extracellular domain; also called FcγRIIb; 2b; not shown: His tag attached to the C terminus
T6 sequence (looked up): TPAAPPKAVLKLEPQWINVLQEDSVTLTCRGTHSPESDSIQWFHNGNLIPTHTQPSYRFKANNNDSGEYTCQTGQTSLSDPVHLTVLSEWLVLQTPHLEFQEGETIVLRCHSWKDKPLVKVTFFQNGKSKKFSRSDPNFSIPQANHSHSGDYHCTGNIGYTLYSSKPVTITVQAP
The assay is described as above.

The target of assay [11] is T7, FcgRIIIaF (human, UniProt P08637 17-208).
T7 construct: extracellular domain; also called FcγRIIIa F; 3aF; not shown: His tag attached to the C terminus
The assay is described as above.

In assay [12] the target is T3, FcgRIIIaV. Described as above.

Where a chain is given by its changes, count along the chain named.

T3 sequence (P08637 17-208 F176V limits assumed): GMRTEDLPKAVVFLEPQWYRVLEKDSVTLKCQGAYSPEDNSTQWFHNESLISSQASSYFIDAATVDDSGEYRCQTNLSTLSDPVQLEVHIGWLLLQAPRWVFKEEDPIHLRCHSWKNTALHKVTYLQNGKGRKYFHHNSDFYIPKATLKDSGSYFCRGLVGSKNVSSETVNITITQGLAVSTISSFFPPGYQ
T7 sequence (P08637 17-208): as the sequence (P08637 17-208 F176V limits assumed) above, with V160F counted along it

B1: J142-z73/L180-k (antibody, human IgG4 S228P, kappa)
heavy: QVQLVQSGSELKKPGASVKVSCKASGYTFTDNNMDWVRQAPGQGLEWMGDINTRSGGSIYNEEFQDRVTMTIDKSTGTAYMELSSLRSEDTAVYYCARRRSYGYYHDEWGEGTLVTVSSASTKGPSVFPLAPCSRSTSESTAALGCLVKDYFPEPVTVSWNSGALTSGVHTFPAVLQSSGLYSLSSVVTVPSSSLGTKTYTCNVDHKPSNTKVDKRVESKYGPPCPPCPAPEFLGGPSVFLFPPKPKDTLMISRTPEVTCVVVDVSQEDPEVQFNWYVDGVEVHNAKTKPREEQFNSTYRVVSVLTVLHQDWLNGKEYKCKVSNKGLPSSIEKTISKAKGQPREPQVYTLPPSQEEMTKNQVSLTCLVKGFYPSDIAVEWESNGQPENNYKTTPPVLDSDGSFFLYSRLTVDKSRWQEGNVFSCSVMHEALHNRFTQESLSLSP
light: DIQMTQSPSSLSASVGDRVTITCKASRNIERNLAWYQQKPGQAPELLIYSASRKESGVPDRFSGSRYGTDFTLTISSLQPEDLATYYCQQYYSPPLTFGGGTKVEIKRTVAAPSVFIFPPSDEQLKSGTASVVCLLNNFYPREAKVQWKVDNALQSGNSQESVTEQDSKDSTYSLSSTLTLSKADYEKHKVYACEVTHQGLSSPVTKSFNRGEC
notes: also called homomeric antibody against FX
For the molecule B1, the binding result in assay [1] was “no binding”.

B2: J300-z107/L210-k (antibody, human IgG4 S228P, kappa)
heavy: B1 heavy with T69I, I72V, G77D, Y95H, R100K, H106L, K198Q, F295Y, R408K, F435Y
light: B1 light with L83I, Y92S
notes: also called homomeric antibody J300-z107
Regarding B2, in assay [2], the binding result is “no binding”.

B3: J142-z72/L180-k (antibody, human IgG4 S228P, kappa)
heavy: B1 heavy with E438K
light: B1 light
notes: also called homomeric antibody J142-z72; homomeric antibody against FX
As to B3, the binding result in [3] was “no binding”.

B4: J300-z107/L210-k (antibody, human IgG4 S228P, kappa)
heavy: B1 heavy with T69I, I72V, G77D, Y95H, R100K, H106L, K198Q, F295Y, R408K, F435Y
light: B1 light with L83I, Y92S
notes: Homomeric by-product in the culture medium of Q407-z106/J300-z107/L210-k; also called homomeric antibody against FX
In the case of B4, the binding result in assay [4] is recorded as “no binding”.

B5: J142-z73/L180-k (antibody, human IgG4 S228P, kappa)
heavy: B1 heavy
light: B1 light
notes: also called homomeric antibody J142-z73
In the case of B5, in assay [5], the binding result is listed as “no binding”.

B6: J142-z72/L180-k (antibody, human IgG4 S228P, kappa)
heavy: B1 heavy with E438K
light: B1 light
notes: as for B1
B6: the binding result in assay [6] is reported as “no binding”.

B7: H240-Kn125/H240-Hl076/L73-k0 (antibody, human IgG1, kappa)
heavy 1: QDQLVQSGAEVKKPGASVKVSCKASGFNIKDTYIQWVRQAPGQGLEWMGRIDPLRKQTKYREKFEGRVTITADTSTNTAYMELSSLRSEDTAVYYCVRSGREFDYWGQGTLVTVSSASTKGPSVFPLAPSSKSTSGGTAALGCLVKDYFPEPVTVSWNSGALTSGVHTFPAVLQSSGLYSLSSVVTVPSSSLGTQTYICNVNHKPSNTKVDKKVEPKSCDKTHTCPPCPAPEYQWGPMVFLFPPKPKDTLMISRTPEVTCVVVDVSDEEPEVKFNWYVDGVEVHNAKTKPREEQYNATYRVVSVLTVLHQDWLNGKEYKCKVSNKALPAPIEKTISKAKGQPREPQVCTLPPSRDELTKNQVSLWCLVKGFYPSDIAVEWESNGQPENNYKTTPPVLDSDGSFFLYSKLTVDKSRWQQGNVFSCSVMHEALHNHYTQKSLSLSP
heavy 2: QDQLVQSGAEVKKPGASVKVSCKASGFNIKDTYIQWVRQAPGQGLEWMGRIDPLRKQTKYREKFEGRVTITADTSTNTAYMELSSLRSEDTAVYYCVRSGREFDYWGQGTLVTVSSASTKGPSVFPLAPSSKSTSGGTAALGCLVKDYFPEPVTVSWNSGALTSGVHTFPAVLQSSGLYSLSSVVTVPSSSLGTQTYICNVNHKPSNTKVDKKVEPKSCDKTHTCPPCPAPELLGGPSVFLFPPKPKDTLMISRTPEVTCVVVDVSHEEPEVKFNWYVDGVEVHNAKTKPREEQYNSTYRVVSVLTVLHQDWLNGKEYKCKVSNDALPMPIEETISKAKGQPREPQVYTLPPSRCELTKNQVSLSCAVKGFYPSDIAVEWESNGQPENNYKTTPPVLDSDGSFFLVSKLTVDKSRWQQGNVFSCSVMHEALHNHYTQKSLSLSP
light: DIQMTQSPSSLSASVGDRVTITCRASQDIHKYIAWYQQKPGQAPRLLIQYTSTLQPGVPSRFSGSGSGTDYTFTISSLQPEDIATYYCLQYEQLRTFGGGTKVEIKRTVAAPSVFIFPPSDEQLKSGTASVVCLLNNFYPREAKVQWKVDNALQSGNSQESVTEQDSKDSTYSLSSTLTLSKADYEKHKVYACEVTHQGLSSPVTKSFNRGEC
notes: Anti-epiregulin heterodimerized IgG1, knobs-into-holes
In turn, B7 gave a Kd in assay [7] of 0.26 nM. The “fold 2aH” value in assay [8] was 3.7 fold. In addition, the “fold 2aR” value in assay [9] amounted to 1.8 fold. Moreover, the “fold 2b” value in assay [10] amounted to 0.8 fold. Further, the “fold 3aF” value in assay [11] is 223 fold. Further, the “fold 3aV” value in assay [12] came out at 185 fold.

(Values after patent US20150344570A1 (published 2015).)
